From PMC3206214 (Molecular cell, 2011)

T1: MBP-BSU1-S764A (Arabidopsis, UniProt Q9LR78 1-793, S764A)
T1 sequence (looked up): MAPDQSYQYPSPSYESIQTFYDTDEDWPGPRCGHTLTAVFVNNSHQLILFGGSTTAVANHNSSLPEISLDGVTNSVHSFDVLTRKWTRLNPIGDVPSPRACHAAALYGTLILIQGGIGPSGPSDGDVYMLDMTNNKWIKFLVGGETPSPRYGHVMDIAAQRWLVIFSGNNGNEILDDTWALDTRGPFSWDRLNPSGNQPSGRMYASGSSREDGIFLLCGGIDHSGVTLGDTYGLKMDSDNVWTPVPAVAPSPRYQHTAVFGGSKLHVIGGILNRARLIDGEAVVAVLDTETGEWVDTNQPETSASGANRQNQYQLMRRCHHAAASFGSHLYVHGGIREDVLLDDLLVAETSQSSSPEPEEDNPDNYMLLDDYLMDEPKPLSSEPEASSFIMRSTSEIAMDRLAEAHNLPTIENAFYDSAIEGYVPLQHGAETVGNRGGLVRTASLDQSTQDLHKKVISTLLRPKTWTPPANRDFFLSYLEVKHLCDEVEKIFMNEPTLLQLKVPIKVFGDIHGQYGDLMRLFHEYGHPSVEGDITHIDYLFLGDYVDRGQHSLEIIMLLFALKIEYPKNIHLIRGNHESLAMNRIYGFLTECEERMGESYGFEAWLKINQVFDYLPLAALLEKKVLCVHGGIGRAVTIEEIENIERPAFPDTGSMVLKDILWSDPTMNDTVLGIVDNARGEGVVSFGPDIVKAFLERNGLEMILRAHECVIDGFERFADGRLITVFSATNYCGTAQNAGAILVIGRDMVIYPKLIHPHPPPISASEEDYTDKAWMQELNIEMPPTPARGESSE


Columns and labels:
Assay in all cases: far-Western, overlay or dot blot
MBP-BSU1 = MBP-BSU1 (Arabidopsis, UniProt Q9LR78 1-793)
[1] = target: MBP-BSU1 pre-incubated with GST-CDG1 and ATP (Arabidopsis, UniProt Q9LR78 1-793, phosphoserine at 764 (by CDG1))
MBP-BSU1-S764A = target: T1, MBP-BSU1-S764A

Row | binding result (MBP-BSU1) | binding result [1] | binding result (MBP-BSU1-S764A) | Binder
1 | binds |  |  | GST-CDG1 (natural protein, Arabidopsis, UniProt Q9LSE1 1-432, looked up) MVSCLCFRPSRKTKLKDKSHKRSIRNQTSSSSAQPAGTAKEVDSSSSQTVVQDSSRYRCQIFSYRELAIATNSFRNESLIGRGGFGTVYKGRLSTGQNIAVKMLDQSGIQGDKEFLVEVLMLSLLHHRNLVHLFGYCAEGDQRLVVYEYMPLGSVEDHLYDLSEGQEALDWKTRMKIALGAAKGLAFLHNEAQPPVIYRDLKTSNILLDHDYKPKLSDFGLAKFGPSDDMSHVSTRVMGTHGYCAPEYANTGKLTLKSDIYSFGVVLLELISGRKALMPSSECVGNQSRYLVHWARPLFLNGRIRQIVDPRLARKGGFSNILLYRGIEVAFLCLAEEANARPSISQVVECLKYIIDHTIRKERRTRRRLLGGNKDGAGTSRSPDETMMRMLEEEEEYVTSEEAIERRRVIVDDARTWAGMNRRGATPPTPTP
2 | binds |  |  | GST-CDG1 pre-incubated with GST-BRI1-K and ATP (natural protein, Arabidopsis, UniProt Q9LSE1 1-432, looked up, phosphoserine at 44, 47 and 234 (BRI1 phosphorylation sites, found by mass spectrometry on GST-CDG1-Y147G)) MVSCLCFRPSRKTKLKDKSHKRSIRNQTSSSSAQPAGTAKEVDSSSSQTVVQDSSRYRCQIFSYRELAIATNSFRNESLIGRGGFGTVYKGRLSTGQNIAVKMLDQSGIQGDKEFLVEVLMLSLLHHRNLVHLFGYCAEGDQRLVVYEYMPLGSVEDHLYDLSEGQEALDWKTRMKIALGAAKGLAFLHNEAQPPVIYRDLKTSNILLDHDYKPKLSDFGLAKFGPSDDMSHVSTRVMGTHGYCAPEYANTGKLTLKSDIYSFGVVLLELISGRKALMPSSECVGNQSRYLVHWARPLFLNGRIRQIVDPRLARKGGFSNILLYRGIEVAFLCLAEEANARPSISQVVECLKYIIDHTIRKERRTRRRLLGGNKDGAGTSRSPDETMMRMLEEEEEYVTSEEAIERRRVIVDDARTWAGMNRRGATPPTPTP
3 |  | binds | binds | GST-BIN2 (natural protein, Arabidopsis, UniProt Q39011 1-380, looked up) MADDKEMPAAVVDGHDQVTGHIISTTIGGKNGEPKQTISYMAERVVGTGSFGIVFQAKCLETGETVAIKKVLQDRRYKNRELQLMRVMDHPNVVCLKHCFFSTTSKDELFLNLVMEYVPESLYRVLKHYSSANQRMPLVYVKLYMYQIFRGLAYIHNVAGVCHRDLKPQNLLVDPLTHQVKICDFGSAKQLVKGEANISYICSRFYRAPELIFGATEYTTSIDIWSAGCVLAELLLGQPLFPGENAVDQLVEIIKVLGTPTREEIRCMNPHYTDFRFPQIKAHPWHKIFHKRMPPEAIDFASRLLQYSPSLRCTALEACAHPFFDELREPNARLPNGRPFPPLFNFKQEVAGSSPELVNKLIPDHIKRQLGLSFLNQSGT
